The target of one test is T1, hu-IL-2Rβ subunit (human, UniProt P14784 27-240, limits assumed).
T1 construct: also called human interleukin-2 receptor subunit β; CD122
T1 sequence (looked up): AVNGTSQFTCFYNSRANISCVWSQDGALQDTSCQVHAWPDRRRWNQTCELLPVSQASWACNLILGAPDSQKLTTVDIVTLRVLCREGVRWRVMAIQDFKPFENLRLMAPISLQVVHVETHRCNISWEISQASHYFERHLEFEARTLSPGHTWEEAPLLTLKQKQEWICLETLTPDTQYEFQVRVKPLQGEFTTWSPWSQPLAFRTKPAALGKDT
Put plainly: phage ELISA competition assay. On the technique in general: ELISA stands for enzyme-linked immunosorbent assay.

Test [1] addresses T2, hu-IL-2Rγc subunit (human), P31785.
T2 chain: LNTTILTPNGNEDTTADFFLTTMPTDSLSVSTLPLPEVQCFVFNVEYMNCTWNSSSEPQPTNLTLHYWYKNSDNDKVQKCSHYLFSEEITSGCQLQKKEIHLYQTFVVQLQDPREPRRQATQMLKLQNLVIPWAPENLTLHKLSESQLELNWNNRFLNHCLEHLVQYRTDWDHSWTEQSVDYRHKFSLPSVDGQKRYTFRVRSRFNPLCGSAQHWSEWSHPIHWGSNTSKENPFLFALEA

The target is the same in test [2]. Put plainly: phage ELISA competition assay.

Read-outs that look alike come from different tables or passages of the source. Positions of bridges follow the written chain, without caps; N, C: chain ends. No end group written: not given here.

In general, IC50 refers to the concentration at which inhibition is half-maximal. Low values mean higher potency, high ones lower potency. For SWHAETWYPCWLAQVGELCDLD [SEQ ID NO 131], the IC50 with hu-IL-2Rβ subunit is under 100 µM. Same read-out and setting: as for WFPCWMAQLGEVCDLD [SEQ ID NO 179], the figure is under 100 µM. With PEGREVVVCRDWYGVELCWQ (modifications not checked) [SEQ ID NO 639], the concentration for half-maximal inhibition (IC50) in test [1] is under 100 µM; in test [2], under 10 µM. Take WYPCHMAKLRELCDLD [SEQ ID NO 180]: the concentration for half-maximal inhibition (IC50) with hu-IL-2Rβ subunit is under 100 µM. Still for that read-out and setting: as for RDQYYPCWMAQLGELCDLDEVF [SEQ ID NO 169], the figure is under 100 µM; as for QGPVRLWYPCWMAQLGELCDLD [SEQ ID NO 145], under 100 µM. KSNFFPCWIAQLGQLCDLEPET [SEQ ID NO 121] yielded an IC50 with hu-IL-2Rβ subunit of under 100 µM. Turning to IECEEWRGVELCWQ (modifications not checked) [SEQ ID NO 638], the IC50 is under 100 µM in test [1] and under 10 µM in test [2]. YLPCWMAHLGELCDLDSPLKAR [SEQ ID NO 165] gave an IC50 in the test with hu-IL-2Rβ subunit of under 100 µM.

In the case of WYPCWIARLGELCDLETSGGFP [SEQ ID NO 171], in the test with hu-IL-2Rβ subunit, the concentration for half-maximal inhibition (IC50) was under 100 µM. The same measure, in the same setting: as for YYPCWMAQLGELCDLE [SEQ ID NO 129], the figure is under 100 µM; as for NEPEGGFYPCWLAQLGELCDLH (disulfide 10-19 (inferred)) [SEQ ID NO 136], under 100 µM; as for AKGWDTWKPCWLANLGELCDLE [SEQ ID NO 140], under 100 µM. Still for that read-out and setting: the figure for WQREWRWFPCWMAKLGDMCDLD [SEQ ID NO 83] is under 100 µM; for NNSREGWFPCWLAKLGDLCDLD [SEQ ID NO 128] it is under 100 µM; for KMHKAVWLPCWMAQVGELCDLE [SEQ ID NO 132] it is under 100 µM. Same read-out and setting: as for YRGWLPCWRAKLGDLCDLGQPM (disulfide 7-16 (inferred)) [SEQ ID NO 151], the figure is under 100 µM. Turning to IWGRTVVECQDWEGVELCWQ (modifications not checked) [SEQ ID NO 640], the IC50 in test [1] is under 100 µM; in test [2], under 10 µM. In the case of WYPCWMANLGELCDLEYPSWAQ [SEQ ID NO 158], the half-inhibitory concentration (IC50) with hu-IL-2Rβ subunit was under 100 µM. Still for that read-out and setting: the figure for RGMCYPCWFARLGELCDLECDQ [SEQ ID NO 159] is under 100 µM; for VRPMGVWYPCWIAQLGELCDLV [SEQ ID NO 149] it is under 100 µM; for GPRFYPCWIAQLGELCDLEDMG [SEQ ID NO 162] it is under 100 µM. Still for that read-out and setting: the figure for WYPCWMAQLGELCDLDAGARHL [SEQ ID NO 160] is under 100 µM; for KLQSWRWYPCWMAQLGELCDLD [SEQ ID NO 135] it is under 100 µM. On the same count and under the same terms, the figure for GTTWYPCWLAQLGELCDLDVLE [SEQ ID NO 155] is under 100 µM; for GEAWYPCWLARLGELCDMDPRV [SEQ ID NO 152] it is under 100 µM. Consider VVCQDWEGVELCWQ (modifications not checked) [SEQ ID NO 652], for which the values for the IC50 in test [1] and in test [2] were under 100 µM and under 10 µM, respectively.

Take IGSWWPCWMAQLGELCDLEPEL [SEQ ID NO 154]: in the test with hu-IL-2Rβ subunit, the IC50 was under 100 µM. The same measure, in the same setting: the figure for YYPCWMARLGELCDLD [SEQ ID NO 85] is under 100 µM; for VRAWYPCWIARLGELCDLEVD [SEQ ID NO 178] it is under 100 µM.

On to SLPCWMAQLGDLCELH [SEQ ID NO 181], for which, in the test with hu-IL-2Rβ subunit, the half-maximal inhibitory concentration (IC50) is under 100 µM. Still for that read-out and setting: the figure for RDESAGYYPCWIAQLGELCDLE [SEQ ID NO 141] is under 100 µM; for KSGWYPCWMAKLGELCDLEAQP [SEQ ID NO 161] it is under 100 µM; for WWPCWMAQLGDLCDLEETSGGT [SEQ ID NO 156] it is under 100 µM. On the same count and under the same terms, as for WLPCWMAQLGDLCDLEQYVPLP [SEQ ID NO 164], the figure is under 100 µM; as for SGHCYPCWLAGLGELCDLNCG [SEQ ID NO 172], under 100 µM.

As to WYPCWMAQPGELCDVD [SEQ ID NO 146], the IC50 with hu-IL-2Rβ subunit was under 100 µM.

In the case of DFERSYVVCQDWDGVELCWI (modifications not checked) [SEQ ID NO 648], the half-maximal inhibitory concentration (IC50) was under 100 µM in test [1] and under 10 µM in test [2].

In the case of DVVCQNWEGVDLCWH (modifications not checked) [SEQ ID NO 653], the results for the IC50 in test [1] and in test [2] were under 100 µM and under 10 µM, respectively. Taken in the same sequence, the figures for SAPERWVECEDWQGVELCWV (modifications not checked) [SEQ ID NO 650] were under 100 µM and under 10 µM. In the test with hu-IL-2Rβ subunit, SVVVNNWLPCWMAQLGELCDLD [SEQ ID NO 86] showed an IC50 of under 100 µM.

Take NGAWYPCWMAQVGELCDLEERW [SEQ ID NO 124]: in the test with hu-IL-2Rβ subunit, the half-maximal inhibitory concentration (IC50) is under 100 µM. The same measure, in the same setting: the figure for WYPCWMANLGELCDLEAERSPV [SEQ ID NO 168] is under 100 µM. The same measure, in the same setting: the figure for QDEAVEWFPCWMARLGELCDLE [SEQ ID NO 84] is under 100 µM; for HASWLPCWLAQLGELCDLEPNP [SEQ ID NO 123] it is under 100 µM; for RQAWYPCWMAQLGELCDLEAEL [SEQ ID NO 126] it is under 100 µM. For the molecule TANQTVVECQVWGGVELCWQ (modifications not checked) [SEQ ID NO 644], the concentration for half-maximal inhibition (IC50) in test [1] is under 100 µM; in test [2], under 10 µM. On to VPRWYPCWIAQLGELCDLDSDD [SEQ ID NO 150], for which the IC50 with hu-IL-2Rβ subunit is under 100 µM. On to RVTWYPCWMAQLGELCDLEESV [SEQ ID NO 163], for which, in the test with hu-IL-2Rβ subunit, the IC50 is under 100 µM. Regarding IVCEEWRGVELCWL (modifications not checked) [SEQ ID NO 647], the values for the IC50 in test [1] and in test [2] were under 100 µM and under 10 µM, respectively.

Consider WYPCWMAQLGELCDLGPTESNL [SEQ ID NO 157], for which the half-maximal inhibitory concentration (IC50) in the test with hu-IL-2Rβ subunit was under 100 µM. Same read-out and setting: as for WYPCWMAQLGELCDLDESTRLT (disulfide 4-13 (inferred)) [SEQ ID NO 153], the figure is under 100 µM. Regarding WYPCWMAQLGELCDLDDHWPAM [SEQ ID NO 166], the concentration for half-maximal inhibition (IC50) with hu-IL-2Rβ subunit was under 100 µM. As to VECQEWGGVELCWC (modifications not checked) [SEQ ID NO 645], the IC50 in test [1] was under 100 µM; in test [2], under 10 µM. The molecule FYPCWMANLGELCDLDFLRELN [SEQ ID NO 122] had a concentration for half-maximal inhibition (IC50) with hu-IL-2Rβ subunit of under 100 µM. Same read-out and setting: as for WYPCWRAQLGELCDLDPPIAVE [SEQ ID NO 167], the figure is under 100 µM.
